Test results: IntAct's records for PubMed 12732850

B1: Humanin (Homo sapiens), Q8IVG9 (parent)
chain: MAPRGFSCLLLLTSEIDLPVKRRA

Variants of: B1
Conditions: with bax_human BAX

Row | Variant | effect of a mutation on the interaction
1 | C8P | disrupting interaction strength
